Assay results: the supplement of paper PMC9170038

Key:
[1] = tested on: MS2 coat protein; assay: apparent KD of MS2 coat protein, switch ON state; designed switch direction (-1 OFF switch, 1 ON switch): 1; higher = weaker reporter binding; details: FMN input: 0 or 200 uM; Eterna round: R93 (includes R88 designs)
How it was run: (§1)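 On-chip transcription from Illumina sequencing clusters produced the designed RNA switches. These were titrated with SNAP-549-labelled MS2 coat protein (twofold steps, 0.7 or 1.5 nM to 3 µM) in 100 mM Tris-HCl pH 7.5, 80 mM KCl, 4 mM MgCl2, with or without constant ligand. The apparent KD given is the per-design median of normalised cluster binding-curve fits.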

[2] = tested on: MS2 coat protein; assay: apparent KD of MS2 coat protein, switch OFF state (with FMN for OFF switches, without FMN for ON switches); designed switch direction (-1 OFF switch, 1 ON switch): 1; higher = weaker reporter binding; details: FMN input: 0 or 200 uM; Eterna round: R93 (includes R88 designs)
How it was run: as §1

AAGAAACAUGAGGAUCACCCAUGUAGAAACAUGGGAGGAUAUACGAAGACGAAAGUCAAAGUAGAAGGCCUAAAAA [Garnet 90]
apparent KD of MS2 coat protein [1]: 78.8 nM | apparent KD of MS2 coat protein [2]: 198 nM

AAGAAACAUGAGGAUCACCCAUGUAGAAAUAUGGGAGGAUAUACGAGGACGAAAGUCAAAGUAGAAGGCCUAAGAA [Mat - Same State 1 - Meechl mod - D130]
apparent KD of MS2 coat protein [1]: 19.6 nM | apparent KD of MS2 coat protein [2]: 66.9 nM

AAGAAACAUGAGGAUCACCCAUGUGAAAGAAACACAGGAUAUGCGAAAAGAAACAAAGAAGCAGAAGGGUGAAGAA [Mat - Same State 1 - Tesla mod - 58]
apparent KD of MS2 coat protein [1]: 22.6 nM | apparent KD of MS2 coat protein [2]: 39.2 nM

AAGGAACAUGAGGAUCACCCAUGUAAAAAAUAUGGAGGAUAUACUAGAAGAAACAAAAUAGUAGAAGGCCAAAAAA [75%, Ex sub1, 30]
apparent KD of MS2 coat protein [1]: 16.5 nM | apparent KD of MS2 coat protein [2]: 20.6 nM

AAUACACAUAGUCAGGAUAUCAAAAAUAAGACAUGAGGAUCACCCAUGUAAUAAGUAAAAGUAAAUGAGAAGGGACAGGGUGAAA [JR_SS002_Sub402]
apparent KD of MS2 coat protein [1]: 33 nM | apparent KD of MS2 coat protein [2]: 79.3 nM

AAUAUACAUGAGGAUCACCCAUGUUAGGUGGGUCAAGGAUAUCAAAAUAAAUAAAGAACAUGAGAAGGUGAAUAAA [JR_SS001_Sub018]
apparent KD of MS2 coat protein [1]: 207 nM | apparent KD of MS2 coat protein [2]: 161 nM

AAUAUAUUAAGUGAGGAUAUCAUAGGAAAAACAUGAGGAUCACCCAUGUGGGAAACCUGGUCGGGUGAGAAGGCACUUAAUAUAU [Samwise Clockwise 30 - Jieux - Same State 2]
apparent KD of MS2 coat protein [1]: 37.5 nM | apparent KD of MS2 coat protein [2]: 217 nM

AAUAUAUUAAGUGAGGAUAUCGAGGAAAAAACAUGAGGAUCACCCAUGUGGGUAAAAAAAAAAAGUGAGAAGGUGCUUAAUAUAU [Samwise Clockwise 10 - Jieux - Same State 2]
apparent KD of MS2 coat protein [1]: 32.3 nM | apparent KD of MS2 coat protein [2]: 128 nM

AAUGAACAUGAGGAUCACCCAUGUUCUAAUAGUUGAGGAUAUAUGGGUGAAAAUAGCACGGUAGAAGGCGAGUGUA [SameState1 Malc#18]
apparent KD of MS2 coat protein [1]: 249 nM | apparent KD of MS2 coat protein [2]: 104 nM

ACUAUACAUGAGGAUCACCCAUGUCAGGUGGGACUAGGAUAUCAUAAGCCAGAGUAAGAAUGAGAAGGAGUAGAAA [JR_SS001_Sub306]
apparent KD of MS2 coat protein [1]: 143 nM | apparent KD of MS2 coat protein [2]: 151 nM

AGAAAACAUGAGGAUCACCCAUGUCAGAAAUGGCAAGGAUAUAGAAAAGAAAAAGAAAAACUAGAAGGUGCAAAAG [Meechl SS1 R2 m2]
apparent KD of MS2 coat protein [1]: 187 nM | apparent KD of MS2 coat protein [2]: 153 nM

AGAAAUAAAAGAGAGGAUAUCCAAAAGAAAACAUGAGGAUCACCCAUGUGAAACAAAACAAAAUGGGAGAAGGCUCAAAAUAAGA [Topaz 16]
apparent KD of MS2 coat protein [1]: 31 nM | apparent KD of MS2 coat protein [2]: 137 nM

AGAAAUAAAAGAGAGGAUAUCCAAAAUAAAACAUGAGGAUCACCCAUGUCUACGAAAGUAGGAUGGGAGAAGGCUCAAAAUAAAG [80% More Helter Skelter 2 + Hairpin]
apparent KD of MS2 coat protein [1]: 120 nM | apparent KD of MS2 coat protein [2]: 14.8 nM

AGAAAUAAAAGAGAGGAUAUCCAAAAUAAAACAUGAGGAUCACCCAUGUGAAACAAAACAAAAUGGGAGAAGGCUCAAAAUAAGA [Topaz 17]
apparent KD of MS2 coat protein [1]: 15.7 nM | apparent KD of MS2 coat protein [2]: 33.9 nM

AGAAAUAAAAGCUAGGAUAUCCAAAAGAAAACAUGAGGAUCACCCAUGUAAAAGAAAAUAAAGUGGGAGAAGGAGCAAAAUAAGA [Starry modified]
apparent KD of MS2 coat protein [1]: 18 nM | apparent KD of MS2 coat protein [2]: 35.6 nM

AGAAAUAAAAGGCAGGAUAUCCAAAAGAAAACAUGAGGAUCACCCAUGUAAAAGAAAAUAAAAUGGGAGAAGGGCCAAAAUAAAG [Fisker 73]
apparent KD of MS2 coat protein [1]: 13.1 nM | apparent KD of MS2 coat protein [2]: 42.3 nM

AGAAUAAAAAGACAGGAUAUCCAAAAGAAAACAUGAGGAUCACCCAUGUAAAAAAAAAUAAAAUGGGAGAAGGGUCAAAAUAAAG [Mat - Same State 2 - JL mod - D69]
apparent KD of MS2 coat protein [1]: 18 nM | apparent KD of MS2 coat protein [2]: 44 nM

AGAUCUAGAAGGUAGGAUAUGUGUAAAAAUACAUGAGGAUCACCCAUGUGAUGAAUAAAAAGAAAAUAGAAGGACCAUCUAGAUC [Cross swing 3]
apparent KD of MS2 coat protein [1]: 16.8 nM | apparent KD of MS2 coat protein [2]: 119 nM

AGGAAACAUGAGGAUCACCCAUGUAAAAAUAUCACAGGAUAUGGAAACACGAAAGUGAAACCAGAAGGGUGAAAAG [77%, Mat - Mod of Eli, 13]
apparent KD of MS2 coat protein [1]: 13.2 nM | apparent KD of MS2 coat protein [2]: 32 nM

AGGAAACAUGAGGAUCACCCAUGUAAAAAUAUGGAAGGAUAUGGAAACACGAAAGUGAAACCAGAAGGUCUGAAAA [77%, Mat - Mod of Eli, 20]
apparent KD of MS2 coat protein [1]: 16.6 nM | apparent KD of MS2 coat protein [2]: 23.3 nM

AGGAAACAUGAGGAUCACCCAUGUAAAAUAAUGGGAGGAUAUGCGAAAAGAAAAAGAAAAGCAGAAGGCCUAAGAA [62%, Something completely different, 4]
apparent KD of MS2 coat protein [1]: 18.6 nM | apparent KD of MS2 coat protein [2]: 98.6 nM
